What was measured:
[1] = target: human ROR1 expressed on the surface of cancer cells (human, UniProt Q01973 30-937); experiment: cell-based or functional assay
[2] = target: T1, His-tagged soluble human ROR1 (shROR1-His) (human, UniProt Q01973 30-406); experiment: SPR (BIACORE), trivalent binding molecule 6.25 to 100 nM passed over immobilized shROR1-His
T1 construct: also called ROR1 protein; immobilized ROR1; not shown: His-Tag
Method: The binding kinetics of each of the ROR1×CD3×CD8 trivalent binding molecules to ROR1 was investigated using BIACORE® analysis in which each trivalent binding molecule (6.25 to 100 nM) was passed over immobilized shROR1-His essentially as described above.

[3] = target: T1, His-tagged soluble human ROR1 …; experiment: SPR (Biacore), shROR1-His captured on anti-PentaHis surface, diabody 6.25-100 nM as analyte
Method: The binding affinity of DART-1, DART-A, DART-B, and DART-C was investigated using Biacore analysis in which each diabody construct was passed over immobilized ROR1. Briefly, shROR1-His was captured on immobilized anti-PentaHis surface and was incubated with DART-1, DART-A, DART-B or DART-C at 6.25-100 nM, and the kinetics of binding was determined via Biacore analysis.

[4] = target: T1, His-tagged soluble human ROR1 …; experiment: sandwich ELISA: plate coated with shROR1-His, serial dilutions of diabody, bound diabody detected with biotinylated CD3 and streptavidin-HRP; y axis 'Mean Value'
Method: The ability of the bispecific ROR1×CD3 two and three chain diabodies DART-1 and DART-A to bind both ROR1 and CD3 was examined by a sandwich ELISA. Briefly, microtiter plates were coated with shROR1-His, the plates were washed and incubated with three-fold serial dilutions of DART-1 or DART-A. The amount of diabody binding to the immobilized ROR1 was assessed using a biotinylated CD3 detected with Streptavidin-HRP. All samples were analyzed on a plate reader and binding curves generated. […] The cells were washed twice incubated with biotin-conjugated mouse anti-EK-coil antibody that recognizes the E-coil/K-coil (EK) heterodimerization region (100 μL of 1 μg/mL mixed with 1:500 diluted streptavidin-phycoerythrin) for 45 min. The cells were then washed and resuspended with FACS buffer, and analyzed with a BD FCS Canto II flow cytometer using FlowJo v10 software.

Sequence of human ROR1 expressed on the surface of cancer cells (Q01973 30-937): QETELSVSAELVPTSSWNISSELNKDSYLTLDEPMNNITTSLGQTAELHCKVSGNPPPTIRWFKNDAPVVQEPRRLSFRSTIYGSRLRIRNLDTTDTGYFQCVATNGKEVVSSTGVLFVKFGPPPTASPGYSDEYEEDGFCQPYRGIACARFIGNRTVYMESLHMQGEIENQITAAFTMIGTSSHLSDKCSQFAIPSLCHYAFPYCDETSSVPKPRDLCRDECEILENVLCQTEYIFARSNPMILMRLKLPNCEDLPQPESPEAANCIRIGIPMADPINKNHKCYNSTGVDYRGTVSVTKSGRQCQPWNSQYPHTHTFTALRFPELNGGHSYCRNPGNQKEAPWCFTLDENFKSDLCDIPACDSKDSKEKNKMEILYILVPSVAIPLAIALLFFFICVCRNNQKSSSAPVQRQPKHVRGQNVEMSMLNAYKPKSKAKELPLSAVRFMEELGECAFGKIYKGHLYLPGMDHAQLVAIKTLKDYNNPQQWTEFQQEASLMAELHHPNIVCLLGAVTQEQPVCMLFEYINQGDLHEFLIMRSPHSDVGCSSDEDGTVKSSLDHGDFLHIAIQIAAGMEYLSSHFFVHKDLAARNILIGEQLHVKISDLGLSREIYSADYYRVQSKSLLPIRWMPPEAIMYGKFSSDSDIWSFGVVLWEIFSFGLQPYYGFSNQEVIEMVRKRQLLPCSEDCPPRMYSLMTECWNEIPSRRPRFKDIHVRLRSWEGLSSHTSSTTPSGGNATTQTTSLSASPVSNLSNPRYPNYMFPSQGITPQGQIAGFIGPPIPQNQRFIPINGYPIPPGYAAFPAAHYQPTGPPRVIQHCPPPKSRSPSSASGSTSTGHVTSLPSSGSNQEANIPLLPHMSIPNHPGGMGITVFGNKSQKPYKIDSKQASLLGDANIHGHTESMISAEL
T1 sequence (Q01973 30-406): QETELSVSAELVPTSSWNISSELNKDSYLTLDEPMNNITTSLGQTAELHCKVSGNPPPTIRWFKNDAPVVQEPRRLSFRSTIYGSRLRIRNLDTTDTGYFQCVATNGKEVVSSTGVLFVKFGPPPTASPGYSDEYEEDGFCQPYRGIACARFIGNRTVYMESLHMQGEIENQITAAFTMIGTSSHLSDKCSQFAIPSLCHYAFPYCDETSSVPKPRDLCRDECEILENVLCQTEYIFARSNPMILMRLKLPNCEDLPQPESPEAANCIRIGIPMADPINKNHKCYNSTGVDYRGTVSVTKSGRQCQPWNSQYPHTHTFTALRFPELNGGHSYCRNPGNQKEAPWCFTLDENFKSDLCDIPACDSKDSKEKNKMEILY

Binder	EC50 nM, redirected cell killing of Calu-3 cells by pan T-cells (LDH release) [1]	EC50 nM, redirected cell killing of JIMT-1 cells by pan T-cells (LDH release) [1]	EC50 nM, redirected cell killing of NCI-H1975 cells by pan T-cells (LDH release) [1]	Kd [2]	Kd [3]	EC50 (read off the curve) [4]
TRIDENT-A (other, parental anti-ROR1-VL/VH, CD3 mAb 1 (D65G), TRX2 (anti-CD8) as scFv-Fc third chain) chain 1: QLVLTQSPSASASLGSSVKLTCTLSSGHKTDTIDWYQQQPGKAPRYLMKLEGSGSYNKGSGVPDRFGSGSSSGADRYLTISSLQSEDEADYYCGTDYPGNYLFGGGTQLTVLGGGGSGGGGEVQLVESGGGLVQPGGSLRLSCAASGFTFSTYAMNWVRQAPGKGLEWVGRIRSKYNNYATYYADSVKGRFTISRDDSKNSLYLQMNSLKTEDTAVYYCVRHGNFGNSYVSWFAYWGQGTLVTVSSASTKGEVAACEKEVAALEKEVAALEKEVAALEKGGGDKTHTCPPCPAPEAAGGPSVFLFPPKPKDTLMISRTPEVTCVVVDVSHEDPEVKFNWYVDGVEVHNAKTKPREEQYNSTYRVVSVLTVLHQDWLNGKEYKCKVSNKALPAPIEKTISKAKGQPREPQVYTLPPSREEMTKNQVSLWCLVKGFYPSDIAVEWESNGQPENNYKTTPPVLDSDGSFFLYSKLTVDKSRWQQGNVFSCSVMHEALHNHYTQKSLSLSPGK chain 2: QAVVTQEPSLTVSPGGTVTLTCRSSTGAVTTSNYANWVQQKPGQAPRGLIGGTNKRAPWTPARFSGSLLGGKAALTITGAQAEDEADYYCALWYSNLWVFGGGTKLTVLGGGGSGGGGQEQLVESGGGLVQPGGSLRLSCAASGFTFSDYYMSWVRQAPGKGLEWVATIYPSSGKTYYADSVKGRFTISSDNAKNSLYLQMNSLRAEDTAVYYCARDSYADDAALFDIWGQGTTVTVSSASTKGKVAACKEKVAALKEKVAALKEKVAALKE chain 3: DIQMTQSPSSLSASVGDRVTITCKGSQDINNYLAWYQQKPGKAPKLLIYNTDILHTGVPSRFSGSGSGTDFTFTISSLQPEDIATYYCYQYNNGYTFGCGTKVEIKGGGGSGGGGSGGGGSQVQLVESGGGVVQPGRSLRLSCAASGFTFSDFGMNWVRQAPGKCLEWVALIYYDGSNKFYADSVKGRFTISRDNSKNTLYLQMNSLRAEDTAVYYCAKPHYDGYYHFFDSWGQGTLVTVSSVEPKSADKTHTCPPCPAPEAAGGPSVFLFPPKPKDTLMISRTPEVTCVVVDVSHEDPEVKFNWYVDGVEVHNAKTKPREEQYNSTYRVVSVLTVLHQDWLNGKEYKCKVSNKALPAPIEKTISKAKGQPREPQVYTLPPSREEMTKNQVSLSCAVKGFYPSDIAVEWESNGQPENNYKTTPPVLDSDGSFFLVSKLTVDKSRWQQGNVFSCSVMHEALHNRYTQKSLSLSPGK	0.0027 nM	0.0022 nM	0.0039 nM	1.3 nM	–	–
TRIDENT-B (other, parental anti-ROR1-VL/VH, CD3 mAb 1 (D65G), TRX2 (anti-CD8) as Fab-type heavy and light chains) chain 1: QLVLTQSPSASASLGSSVKLTCTLSSGHKTDTIDWYQQQPGKAPRYLMKLEGSGSYNKGSGVPDRFGSGSSSGADRYLTISSLQSEDEADYYCGTDYPGNYLFGGGTQLTVLGGGGSGGGGEVQLVESGGGLVQPGGSLRLSCAASGFTFSTYAMNWVRQAPGKGLEWVGRIRSKYNNYATYYADSVKGRFTISRDDSKNSLYLQMNSLKTEDTAVYYCVRHGNFGNSYVSWFAYWGQGTLVTVSSASTKGEVAACEKEVAALEKEVAALEKEVAALEKGGGDKTHTCPPCPAPEAAGGPSVFLFPPKPKDTLMISRTPEVTCVVVDVSHEDPEVKFNWYVDGVEVHNAKTKPREEQYNSTYRVVSVLTVLHQDWLNGKEYKCKVSNKALPAPIEKTISKAKGQPREPQVYTLPPSREEMTKNQVSLWCLVKGFYPSDIAVEWESNGQPENNYKTTPPVLDSDGSFFLYSKLTVDKSRWQQGNVFSCSVMHEALHNHYTQKSLSLSPGK chain 2: QAVVTQEPSLTVSPGGTVTLTCRSSTGAVTTSNYANWVQQKPGQAPRGLIGGTNKRAPWTPARFSGSLLGGKAALTITGAQAEDEADYYCALWYSNLWVFGGGTKLTVLGGGGSGGGGQEQLVESGGGLVQPGGSLRLSCAASGFTFSDYYMSWVRQAPGKGLEWVATIYPSSGKTYYADSVKGRFTISSDNAKNSLYLQMNSLRAEDTAVYYCARDSYADDAALFDIWGQGTTVTVSSASTKGKVAACKEKVAALKEKVAALKEKVAALKE heavy: not shown light: not shown	0.0044 nM	0.0052 nM	0.0153 nM	1.6 nM	–	–
DART-B (bispecific antibody, Three chain Fc Region-containing ROR1×CD3 diabody; VH: parental) chain 1: QLVLTQSPSASASLGSSVKLTCTLSSGHKTDTIDWYQQQPGKAPRYLMKLEGSGSYNKGSGVPDRFSGSSSGADRYLTISSLQSEDEADYYCGTDYPGNYLFGGGTQLTVLGGGGSGGGGEVQLVESGGGLVQPGGSLRLSCAASGFTFSTYAMNWVRQAPGKGLEWVGRIRSKYNNYATYYADSVKGRFTISRDDSKNSLYLQMNSLKTEDTAVYYCVRHGNFGNSYVSWFAYWGQGTLVTVSSASTKGEVAACEKEVAALEKEVAALEKEVAALEKGGGDKTHTCPPCPAPEAAGGPSVFLFPPKPKDTLMISRTPEVTCVVVDVSHEDPEVKFNWYVDGVEVHNAKTKPREEQYNSTYRVVSVLTVLHQDWLNGKEYKCKVSNKALPAPIEKTISKAKGQPREPQVYTLPPSREEMTKNQVSLWCLVKGFYPSDIAVEWESNGQPENNYKTTPPVLDSDGSFFLYSKLTVDKSRWQQGNVFSCSVMHEALHNHYTQKSLSLSPGK chain 2: QAVVTQEPSLTVSPGGTVTLTCRSSTGAVTTSNYANWVQQKPGQAPRGLIGGTNKRAPWTPARFSGSLLGGKAALTITGAQAEDEADYYCALWYSNLWVFGGGTKLTVLGGGGSGGGGQEQLVESGGGLVQPGGSLRLSCAASGFTFSDYYMSWVRQAPGKGLEWVATIYPSSGKTYYADSVKGRFTISSDNAKNSLYLQMNSLRAEDTAVYYCARDSYADDAALFDIWGQGTTVTVSSASTKGKVAACKEKVAALKEKVAALKEKVAALKE chain 3: not shown	–	–	–	–	0.65 nM	–
DART-D (bispecific antibody, Three chain Fc Region-containing ROR1×CD3 diabody) chain 1: QLVLTQSPSASASLGSSVKLTCTLSSGHKTDTIDWYQQQPGKAPRYLMKLEGSGSYNKGSGVPDRFSGSSSGADWYLTISSLQSEDEADYYCGTDYPGNYLFGGGTQLTVLGGGGSGGGGEVQLVESGGGLVQPGGSLRLSCAASGFTFSTYAMNWVRQAPGKGLEWVGRIRSKYNNYATYYADSVKGRFTISRDDSKNSLYLQMNSLKTEDTAVYYCVRHGNFGNSYVSWFAYWGQGTLVTVSSASTKGEVAACEKEVAALEKEVAALEKEVAALEKGGGDKTHTCPPCPAPEAAGGPSVFLFPPKPKDTLMISRTPEVTCVVVDVSHEDPEVKFNWYVDGVEVHNAKTKPREEQYNSTYRVVSVLTVLHQDWLNGKEYKCKVSNKALPAPIEKTISKAKGQPREPQVYTLPPSREEMTKNQVSLWCLVKGFYPSDIAVEWESNGQPENNYKTTPPVLDSDGSFFLYSKLTVDKSRWQQGNVFSCSVMHEALHNHYTQKSLSLSPGK chain 2: QAVVTQEPSLTVSPGGTVTLTCRSSTGAVTTSNYANWVQQKPGQAPRGLIGGTNKRAPWTPARFSGSLLGGKAALTITGAQAEDEADYYCALWYSNLWVFGGGTKLTVLGGGGSGGGGQEQLVESGGGLVQPGGSLRLSCAASGFTFSDYYMSWIRQAPGKGLEWVATIYPSSGKTYYADSAKGRLTISSDNAKDSLYLQMNSLRAEDTAVYYCTRDSYADDAALFDIWGQGTTVTVSSASTKGKVAACKEKVAALKEKVAALKEKVAALKE chain 3: not shown	–	–	–	–	–	~1 nM
